Reference: paper PMC6707142, “Orthogonal monoterpenoid biosynthesis in yeast constructed on an isomeric substrate” (Nature Communications, 2019)
Numbering of substitutions follows the chain as printed. In names and notes the source's numbering stands.

B1: SfCinS1 (Salvia fruticosa; F571V) (protein)
chain: CSLQTGNEIQTERRTGGYQPTLWDFSTIQSFDSEYKEEKHLMRAAGMIDQVKMMLQEEVDSIRRLELIDDLRRLGISCHFEREIVEILNSKYYTNNEIDERDLYSTALRFRLLRQYDFSVSQEVFDCFKNAKGTDFKPSLVDDTRGLLQLYEASFLSAQGEETLRLARDFATKFLQKRVLVDKDINLLSSIERALELPTHWRVQMPNARSFIDAYKRRPDMNPTVLELAKLDFNMVQAQFQQELKEASRWWNSTGLVHELPFVRDRIVECYYWTTGVVERRQHGYERIMLTKINALVTTIDDVFDIYGTLEELQLFTTAIQRWDIESMKQLPPYMQICYLALFNFVNEMAYDTLRDKGFDSTPYLRKVWVGLIESYLIEAKWYYKGHKPSLEEYMKNSWISIGGIPILSHLFFRLTDSIEEEAAESMHKYHDIVRASCTILRLADDMGTSLDEVERGDVPKSVQCYMNEKNASEEEAREHVRSLIDQTWKMMNKEMMTSSFSKYFVEVSANLARMAQWIYQHESDGVGMQHSLVNKMLRDLLFHRYE
notes: 6xHis-tagged, E. coli BL21(DE3), Ni-NTA purified
B2: SfCinS1 (Salvia fruticosa; F571H) (protein)
chain: B1 chain with V527H
notes: as for B1
B3: SfCinS1 (Salvia fruticosa; F571L) (protein)
chain: B1 chain with V527L
notes: as for B1
B4: SfCinS1 (Salvia fruticosa) (protein)
chain: B1 chain with V527F
notes: as for B1
B5: ClLimS (Citrus x limon) (protein)
chain: AKYKPVQCLISAKYDNLTVDRRSANYQPSIWDHDFLQSLNSNYTDEAYKRRAEELRGKVKIAIKDVIEPLDQLELIDNLQRLGLAHRFETEIRNILNNIYNNNKDYNWRKENLYATSLEFRLLRQHGYPVSQEVFNGFKDDQGGFICDDFKGILSLHEASYYSLEGESIMEEAWQFTSKHLKEVMISKNMEEDVFVAEQAKRALELPLHWKVPMLEARWFIHIYERREDKNHLLLELAKMEFNTLQAIYQEELKEISGWWKDTGLGEKLSFARNRLVASFLWSMGIAFEPQFAYCRRVLTISIALITVIDDIYDVYGTLDELEIFTDAVERWDINYALKHLPGYMKMCFLALYNFVNEFAYYVLKQQDFDLLLSIKNAWLGLIQAYLVEAKWYHSKYTPKLEEYLENGLVSITGPLIITISYLSGTNPIIKKELEFLESNPDIVHWSSKIFRLQDDLGTSSDEIQRGDVPKSIQCYMHETGASEEVARQHIKDMMRQMWKKVNAYTADKDSPLTGTTTEFLLNLVRMSHFMYLHGDGHGVQNQETIDVGFTLLFQPIPLEDKHMAFTASPGTKG
notes: 6xHis-tagged, E. coli BL21(DE3), Ni-NTA purified; printed as (+)-S-limonene synthase
B6: ClLimS (Citrus x limon; H570I) (protein)
chain: B5 chain with H538I
notes: as for B5
B7: ClLimS (Citrus x limon; H570Y) (protein)
chain: B5 chain with H538Y
notes: as for B5
B8: SlNPPS1 (Solanum lycopersicum) (protein)
chain: SARGLNKISCSLNLQTEKLCYEDNDNDLDEELMPKHIALIMDGNRRWAKDKGLEVYEGHKHIIPKLKEICDISSKLGIQIITAFAFSTENWKRSKEEVDFLLQMFEEIYDEFSRSGVRVSIIGCKSDLPMTLQKCIALTEETTKGNKGLHLVIALNYGGYYDILQATKSIVNKAMNGLLDVEDINKNLFDQELESKCPNPDLLIRTGGEQRVSNFLLWQLAYTEFYFTNTLFPDFGEEDLKEAIMNFQQRHRRFGGHTY

Tests used:
[1] = substrate: CC(C)=CCC/C(C)=C/COP(=O)(O)OP(=O)(O)O; experiment: GC-MS of hexane-extracted monoterpene products; type: biochemical, Salvia fruticosa; settings: 20 mM MOPS pH 7.0, 20 mM MgCl2, 0.02 mM MnCl2, 30 °C, 1 h
Excerpt: (§1) GC-MS of hexane-extracted monoterpene products on […]1

[2] = substrate: CC(C)=CCC/C(C)=C\COP(=O)(O)OP(=O)(O)O; experiment: GC-MS of hexane-extracted monoterpene products; type: biochemical, Salvia fruticosa; settings: 20 mM MOPS pH 7.0, 20 mM MgCl2, 0.02 mM MnCl2, 30 °C, 1 h
Excerpt: as §1

[3] = substrate: CC(C)=CCC/C(C)=C/COP(=O)(O)OP(=O)(O)O; experiment: GC-MS of hexane-extracted monoterpene products; type: biochemical, Citrus x limon; settings: 20 mM MOPS pH 7.0, 20 mM MgCl2, 0.02 mM MnCl2, 30 °C, 1 h
Excerpt: (§2) GC-MS of hexane-extracted monoterpene products on […]

[4] = substrate: CC(C)=CCC/C(C)=C\COP(=O)(O)OP(=O)(O)O; experiment: GC-MS of hexane-extracted monoterpene products; type: biochemical, Citrus x limon; settings: 20 mM MOPS pH 7.0, 20 mM MgCl2, 0.02 mM MnCl2, 30 °C, 1 h
Excerpt: as §2

[5] = substrate: CC(C)=CCOP(=O)(O)OP(=O)(O)O; experiment: GC-MS after acid hydrolysis of prenyl diphosphates; type: biochemical, Solanum lycopersicum; settings: 0.05 mM IPP, 10 mM MOPS pH 7.0, 5 mM MgCl2, 30 °C, 1 h
purified protein = substrate: C=C(C)CCO[P@@](=O)(O)OP(=O)(O)O; experiment: purified protein; settings: 0.05 mM DMAPP, 10 mM MOPS pH 7.0, 5 mM MgCl2, 30 °C, 1 h

Row | Protein | Km [1] [µM] | kcat [1] [s⁻¹] | kcat/Km [1] [M⁻¹ s⁻¹] | Km [2] [µM] | kcat [2] [s⁻¹] | kcat/Km [2] [M⁻¹ s⁻¹] | Km [3] [µM] | kcat [3] [s⁻¹] | kcat/Km [3] [M⁻¹ s⁻¹] | Km [4] [µM] | kcat [4] [s⁻¹] | kcat/Km [4] [M⁻¹ s⁻¹] | Km [5] [µM] | kcat [5] [s⁻¹] | Km (purified protein) [µM] | kcat (purified protein) [s⁻¹]
1 | B1 | 271.5 ± 95.30 | 0.00533 ± 0.00133 | 16.7 | 67.24 ± 13.30 | 0.0075 ± 0.000667 | 117 | – | – | – | – | – | – | – | – | – | –
2 | B2 | 18.05 ± 5.07 | 0.0143 ± 0.0015 | 800 | 238.1 ± 34.35 | 0.0123 ± 0.00133 | 50 | – | – | – | – | – | – | – | – | – | –
3 | B3 | 55.72 ± 9.22 | 0.00733 ± 0.00117 | 133 | 71.82 ± 17.63 | 0.0107 ± 0.00133 | 150 | – | – | – | – | – | – | – | – | – | –
4 | B4 | 26.12 ± 2.79 | 0.0927 ± 0.00633 | 3550 | 89.46 ± 4.99 | 0.203 ± 0.0445 | 2280 | – | – | – | – | – | – | – | – | – | –
5 | B5 | – | – | – | – | – | – | 24.94 ± 3.76 | 0.306 ± 0.0147 | 12200 | 81.55 ± 7.33 | 0.619 ± 0.0293 | 7600 | – | – | – | –
6 | B6 | – | – | – | – | – | – | 24.43 ± 6.44 | 0.0035 ± 0.000333 | 150 | 27.06 ± 4.72 | 0.0317 ± 0.00217 | 1170 | – | – | – | –
7 | B7 | – | – | – | – | – | – | 11.76 ± 4.82 | 0.149 ± 0.00717 | 12600 | 23.98 ± 6.41 | 0.364 ± 0.0277 | 15200 | – | – | – | –
8 | B8 | – | – | – | – | – | – | – | – | – | – | – | – | 66.72 ± 6.32 | 0.000617 ± 1.7e-05 | 83.69 ± 17.41 | 0.000683 ± 5e-05
